Data from patent US20240238401A1.

Target: mAb binding to Consensus GII.4 VLPs (BioGenes; IgG clone #1-9-1)
Test: IVRP competition ELISA; serially diluted thin-film freeze-dried and reconstituted vaccine (4% trehalose or 5% sucrose, bulk or single-vial TFFD) competes for mAb against plate-coated VLP; reference is undried vaccine

Substance “Norovirus genotype GII.4 Consensus VLP (from UniProt P54635 1-539)” has a relative potency (IVRP; inflection point of test vaccine divided by that of reference vaccine) of 49 to 73%.
